Target: the molecule itself
Experiment: cryo-EM structure; replisome assembled at room temperature from 0.7 uM CMG, forked DNA and ATPγS, then 1.5 molar excess of Polε, Ctf4, Tof1-Csm3; 100 mM KCl, 25 mM HEPES pH 7.6, 4 mM MgCl2, 4 mM ATPγS; 10-30% glycerol gradient with glutaraldehyde fixation; States I-VI by 3D classification

B1: Ctf4 homotrimer (natural protein, yeast)
chain: MVSVIDKLVFDFGGKTLVSLAPDNNTLCVANKNGLTKILKTNNPEEEPETLDSSKLVSSIKCYSNSHFLMTTMQGDALRYNIDSSQEELLARFALPLRDCCVIHSGKMAVFGGDDLELILLELDDETHKKHAIKIDEQVSQISYNSQMNILAVSMINGKVQIFSLTSTIPNKVHELNDYIVANSYDDTHRDKILSNMMDDIDKDNDNDLSETADPDENNVADPEFCAANRICTRVAWHPKGLHFALPCADDTVKIFSIKGYSLQKTLSTNLSSTKAHFIDLQFDPLRGTYIAAVDLNNKLTVWNWETSEIHYTREFKRKITNIAWKIQADSKTLDLVLGTWSGSIAIVQNLAESVVSNIPDQSVAESSTKHGLFVDSESDLENLEGNDDINKSDKLFSDITQEANAEDVFTQTHDGPSGLSEKRKYNFEDEEDFIDDDDGAGYISGKKPHNEHSYSRVHKTHSFPISLANTGKFRYMPFSPAGTPFGFTDRRYLTMNEVGYVSTVKNSEQYSITVSFFDVGRFREYHFEDLFGYDLCFLNEKGTLFGQSKTGQIQYRPHDSIHSNWTKIIPLQAGERITSVAATPVRVIVGTSLGYFRSFNQFGVPFAVEKTSPIVALTAQNYRVFSVHYSQFHGLSYSLSELGTSSKRYYKRECPLPMSLPNINSDMKKDANLDYYNFNPMGIKSLFFSSYGDPCIFGSDNTLLLLSKWRSPEESKWLPILDSNMEIWKMSGGKETTDIHVWPLALAYDTLNCILVKGKHIWPEFPLPLPSEMEIRMPVFVKSKLLEENKAILNKKNEIGADTEAEEGEEDKEIQIPVSMAAEEEYLRSKVLSELLTDTLENDGEMYGNENEVLAALNGAYDKALLRLFASACSDQNVEKALSLAHELKQDRALTAAVKISERAELPSLVKKINNIREARYEQQLK
notes: Ctf4, yeast; also called Ctf4 trimer; source: E. coli BL21(DE3) Rosetta (pXZ1), purified (Ni-NTA, sumo protease, Ni-NTA, Mono Q, Superose 6)
- stoichiometry N: 3

From article PMC10511561, “Synergism between CMG helicase and leading strand DNA polymerase at replication fork” (Nature Communications, 2023)
